Results reported in patent publication US20170158755A1 (PROTHENA BIOSCIENCES, published 2017).

Biological target: T1, human MCAM-Fc fusion protein (human, UniProt P43121 24-559)
T1 construct: Made in house by fusing the extracellular domain of human MCAM to human IgG1, produced in CHO cells; also called hMCAM-Fc; not shown: human IgG1 (Fc part of the fusion)
T1 sequence: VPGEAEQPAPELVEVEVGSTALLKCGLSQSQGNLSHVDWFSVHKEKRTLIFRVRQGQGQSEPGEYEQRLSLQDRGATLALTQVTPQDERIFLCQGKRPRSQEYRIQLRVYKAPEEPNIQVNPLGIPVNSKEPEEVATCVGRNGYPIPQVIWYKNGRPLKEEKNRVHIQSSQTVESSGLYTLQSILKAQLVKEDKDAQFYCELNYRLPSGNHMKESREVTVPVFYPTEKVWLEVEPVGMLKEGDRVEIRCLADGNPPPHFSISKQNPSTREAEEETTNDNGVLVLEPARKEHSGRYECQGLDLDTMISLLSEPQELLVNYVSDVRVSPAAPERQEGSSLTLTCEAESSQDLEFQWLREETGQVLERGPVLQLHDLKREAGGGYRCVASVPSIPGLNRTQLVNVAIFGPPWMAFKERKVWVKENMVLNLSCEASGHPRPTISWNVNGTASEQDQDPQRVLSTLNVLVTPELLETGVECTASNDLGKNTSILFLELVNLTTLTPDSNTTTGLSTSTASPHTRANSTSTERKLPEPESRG
Assay: ELISA, MCAM-Fc captured via goat anti-human Fab
Experimental: To determine the LAMA4 epitope(s)/domain(s) necessary for MCAM binding, recombinant MCAM-Fc (or Fc control) protein was prebound to plates via goat anti-human Fabs overnight. Truncated recombinant variants of the LAMA4 G domain (and Tau control protein) were assayed for their ability to bind MCAM-Fc protein as described in the Materials and Methods and as shown in FIG. 6. The results are presented in arbitrary units (A.U.) on the y-axis. […] Therefore, the LG1-3 modules of the G domain of LAMA4 mediate LAMA4-MCAM interactions.

B1: His-tagged recombinant LAMA4 G-domain variant with LG modules 4-5 (ligand)
chain: RNSHCHLSNSPRAIEHAYQYGGTANSRQEFEHLKGDFGAKSQFSIRLRTRSSHGMIFYVSDQEENDFMTLFLAHGRLVYMFNVGHKKLKIRSQEKYNDGLWHDVIFIRERSSGRLVIDGLRVLEESLPPTEATWKIKGPIYLGGVAPGKAVKNVQINSIYSFSGCLSNLQLNGASITSASQTFSVTPCFEGPMETGTYFSTEGGYVVLDESFNIGLKFEIAFEVRPRSSSGTLVHGHSVNGEYLNVHMKNGQVIVKVNNGIRDFSTSVTPKQSLCDGRWHRITVIRDSNVVQLDVDSEVNHVVGPLNPKPIDHREPVFVGGVPESLLTPRLAPSKPFTGCIRHFVIDGHPVSFSKAALVSGAVSINSCP
notes: also called LAMA4 variant containing the LG modules 4-5; LG4-5
Does B1 bind?
Result: no binding
